For one substance, stoichiometry N results are on record in paper PMC2843729.

The term stoichiometry N denotes a count of units in the complex or per binding partner.

The target of this assay is mouse CNPase catalytic domain containing the C-terminal tail (construct 6-2) (mouse). Briefly: SEC; HiLoad 16/60 Superdex 200, after Ni-TED purification and TEV cleavage; dimer to monomers. A general note: In gel filtration, larger molecules generally elute earlier.

As to “mouse CNPase catalytic domain containing the C-terminal tail (construct 6-2) (domain or fragment)”, the stoichiometry N worked out at 2.
